Values of other authors in PMC4421034.

Target: Calmodulin (UniProt P0DP23)

Kd: 1 nM
Substance: MLCK (from UniProt Q15746)
